Test results published in the supplement of paper PMC9170038.

Test system: MS2 coat protein
Experiment: apparent KD of MS2 coat protein; designed switch direction (-1 OFF switch, 1 ON switch): -1; higher = weaker reporter binding
Procedure, shortened: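 The buffer was Tris-HCl pH 7.5 with KCl, MgCl2, BSA, DTT, tRNA and Tween-20. In it, SNAP-549-labelled MS2 coat protein was titrated in doubling steps from 0.7 or 1.5 nM to 3 µM over chip-bound RNA switches transcribed by stalled E. coli RNA polymerase on Illumina chips. Apparent KD is the per-design median over clusters of curve fits to normalised fluorescence.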

[1] = input ligand: microRNA oligo, concentration not stated
[2] = Eterna round: R95, input ligand: microRNA oligo, concentration not stated
[3] = Eterna round: R95, input ligand: FMN 200 uM
[4] = Eterna round: R95, input ligand: none

Sequence	apparent KD of MS2 coat protein (input ligand: FMN 200 uM) [nM]	apparent KD of MS2 coat protein [1] [nM]	apparent KD of MS2 coat protein (input ligand: none) [nM]	apparent KD of MS2 coat protein [2] [nM]	apparent KD of MS2 coat protein [3] [nM]	apparent KD of MS2 coat protein [4] [nM]
UGUCUUCAUAUCACAUGAGGAUCACCCAUGUUAUUCAUCUCGUAGGAUAUCGAGGUUUUUUAUUUCGAGAAGGACGUAUUGUUU [JR_ExcNG3_Sub077] (Eterna round: R96, puzzle: Exclusion NG 3)	215	135	153			
AAAAGUUAAGGAUAUACAGGGAGCCGCGGCGACUCGCCGCAACAUGAGGAUCACCCAUGUAGAAGGUAGCCAAA [Enbibi] (puzzle: Exclusion 2)				23.7		
GGGCUCGGUGUGAGGAUAUCGGGCCCGAAAGGGCCCGAGAAGGCACAUGAGGAUCACCCAUGUAAGUCGGGCUC [-38.1, -37 kcal, A 23%, 0-4] (Eterna round: R97, puzzle: Brourd's mod of Exclusion 4)	13.6		14.1			
GAAUAGUGAGGAUAUGCAAUGAAGGUAGUACGAUAUGUCUGACAUGAGGAUCACCCAUGUAGAAGGCACAGAUC [EX2 #12] (Eterna round: R97, puzzle: Exclusion 2)	16.1		22			
GCAGGAUAAGUCAGGAUAUACCUAUGGAUACAUAGGUAGAAGGGACAUGAGGAUCACCCAUGUGCCUCACCUGC [Fiskers BMX 4 - 57] (puzzle: Brourd's mod of Exclusion 4)				16.6	48.7	16.1
GUCAUGUUAGGAUAUCUAACAUGUGACUUCGGUCACUGUCCAGAGAAGGAACAUGAGGAUCACCCAUGUUGGAC [Ex4-3: 56] (puzzle: Exclusion 4)				13		
CACGGGUAAGGAUAUACAAGUGAGAAAGGUAUGUGCAAAUAACAUGAGGAUCACCCAUGUAGAAGGUACGCCGG [Cearxeen] (puzzle: Exclusion 2)				16.9	27.1	14.9
UCUCGACAUGAGGAUCACCCAUGUCAGGAUAUUGUAUUGGAGGUGUUUAACCUUAUGGCAAGAAGGGAUGUGUG [LRO-Excl1-25] (puzzle: Exclusion 1)				22.9		
UUGAUACAUACCUCCAUAAACAUGAGGAUCACCCAUGUAAGUGAGGAUAUAGAUUGUUUAGUAUACUAGAAGGCACUUAGAUAU [JR_ExcNG3_Sub045] (Eterna round: R96, puzzle: Exclusion NG 3)		9.11				
CUAACAUGCUGGUGAUCAUACAUGAGGAUCACCCAUGUAACAAGCUUUUUGCUCGUCUUAUAAUUUAAGAUCACCAG [Stov1/7-A4] (Eterna round: R97, puzzle: Sensor, turn-off variant 1)	17		14.1			
UAUAUGUUAGGAUAUUAGUAGUAAAUGAAUAAAAUUAUUACUGAGAAGGGACAUGAGGAUCACCCAUGUACCUC [Mat - Exclusion 4 - Eli Mod - D30] (Eterna round: R97, puzzle: Exclusion 4)	19.3		15.9			
CUGAACAUAGGAUAUACAUGAGGAUCACCCAUGUAUAUAAAAGGGUGUUCCAACUAAAGUAGAAGGAUGUAUAG [ExFusion 4 - Jieux - Exclusion 3] (Eterna round: R97, puzzle: Exclusion 3)	45.1		57.8			
UGUAGAGUGGUAGGAUAUCCGUCUGUUUCAGUCGGAGAAGGACCACAGUCACUGGGUCCUUAUAUGGGUGACCAUGUAUCUACU [pwkr exNG1 F6.5] (Eterna round: R96, puzzle: Exclusion NG 1)	652	303	369			
UGCCGUAGAGGAUAUACAUUGAAAUAGAUUCAUGUAAAACUACAUGAGGAUCACCCAUGUAGAAGGCUAUGGCU [JL-ex2-4.34 Eli mod] (Eterna round: R97, puzzle: Exclusion 2)	68.4		23			
ACAUGUUAUGUAGGAUAUUUUACACAUGAGGAUCACCCAUGUAACCGGAGGCUUUACUAUGAGUAAGAGAAGGGUAUGAACAUG [Ex NG2 #64] (Eterna round: R96, puzzle: Exclusion NG 2)	92.5	42.2	83.7			
CCAAUACAAGGAUAUGCGAUGCAUGUCAGGUUAGUAGACAGACAUGAGGAUCACCCAUGUAGAAGGUGUGUUGG [Eternabot (L2) Solution 55] (Eterna round: R97, puzzle: Exclusion 2)	75.6		41.4			
UAUAAAACAUAGGAUAUCGAAUUAAUCAUUUAACGAGAAGGAUGAACAUGAGGAUCACCCAUGUGGUAUCAUGG [Mat - Exclusion 6 - JL Mod - D9] (puzzle: Exclusion 6)				61.5	333	129
UCAUGGUAGCAGGAUAUGCUUGUAAUUUUUUAUGCAGAAGGGCUUACAUGAGGAUCACCCAUGUGUUAGGUCUA [JR_E6_Sub069] (puzzle: Exclusion 6)				45.2		
GAAAACGCAGAGGAUAUUUCAGAUCAAAGCUGCAAAGAAGGCUGCACAUGAGGAUCACCCAUGUGGUCUUCAAG [Mat - Exclusion 6 - JL Mod - D9] (Eterna round: R97, puzzle: Exclusion 6)	152		29			
AGUGUGUUAGGAUAUCGGAUAUGCUGGAGGAGGUGGAUUUACGAGAAGGAACAUGAGGAUCACCCAUGUAGGAG [JR_Exclu4_Sub048] (puzzle: Exclusion 4)				36.2		
CUUUUGUGAGGAUAUUAGUAGUAAAUAAAUAAAAUUUCUACUGAGAAGGCACAUGAGGAUCACCCAUGUUCCUC [salish99_ex4_r3_061] (Eterna round: R96, puzzle: Exclusion 4)	347	34	33.9			
AGUGCGUAUGUGAGGAUAUGCUGGUCCUUGGAUCGGCAGAAGGCACAUGAGGAUCACCCAUGUGGUGUCGUACA [salish99_Bmod_ex4_085] (puzzle: Brourd's mod of Exclusion 4)				257	21.5	263
AGCCACAGAGGAUAUACAUACAUCCAGUAGUUAAGAAAACUACAUGAGGAUCACCCAUGUAGAAGGCUGUGGCA [Omei Ex2 BD B5] (Eterna round: R97, puzzle: Exclusion 2)	507		101			
AAGCAGCGAGGAUAUGCUUGCGCGUGUUCUAGUUGAAAUAAACUUGAGGAUCACCCAAGUAGAAGGCGCAACCG [EX2 #44] (Eterna round: R97, puzzle: Exclusion 2)	437		65.6			
GCGCACCUACCAAAAGGUAGGACAACAUGAGGAUCACCCAUGUAGGAUAUCGAUUGCUUUGCAGUCGAGAAGGACAUGAUGCGC [JL ENG3 3.80 Mod 7] (Eterna round: R96, puzzle: Exclusion NG 3)	111	25.9	34.7			
CAAAGAUAAGGAUAUUGAAGGUUCGACAUGAGGAUCACCCAUGUUAUGUUGGAAAAGGGACAAGAAGGUAUGAAAA [salish99_ex5_r4_214] (Eterna round: R97, puzzle: Exclusion 5)	31.5		39.3			
